Laboratory results taken from patent US20160039895A1 (published 2016).

How the values were obtained:
[1] = biological target: VEGFR2 and αvβ3 integrin, both expressed on human umbilical vein endothelial cells (HUVEC) (human) (UniProt P35968); experiment: cell-based or functional assay
[2] = biological target: T1, human αvβ3 integrin on cells (human, UniProt P06756 31-1048; P05106 27-788); experiment: cell-based or functional assay
[3] = biological target: T2, α5β1 integrin on wild-type K562 cells (UniProt P08648 42-1049; P05556 21-798, limits assumed); experiment: flow cytometry on wild-type K562 cells
T2 construct: whole, on cells

[4] = biological target: T3, αvβ5 integrin on transfected K562 cells (UniProt P06756 31-1048; P18084 24-799, limits assumed); experiment: flow cytometry on K562 cells transfected with αvβ5
T3 construct: whole, on cells

[5] = biological target: T4, αiibβ3 integrin on transfected K562 cells (UniProt P08514 32-1039; P05106 27-788, limits assumed); experiment: flow cytometry on K562 cells transfected with αiibβ3
T4 construct: whole, on cells
T4 sequence (P08514 32-1039 limits assumed, chain 1 of 2): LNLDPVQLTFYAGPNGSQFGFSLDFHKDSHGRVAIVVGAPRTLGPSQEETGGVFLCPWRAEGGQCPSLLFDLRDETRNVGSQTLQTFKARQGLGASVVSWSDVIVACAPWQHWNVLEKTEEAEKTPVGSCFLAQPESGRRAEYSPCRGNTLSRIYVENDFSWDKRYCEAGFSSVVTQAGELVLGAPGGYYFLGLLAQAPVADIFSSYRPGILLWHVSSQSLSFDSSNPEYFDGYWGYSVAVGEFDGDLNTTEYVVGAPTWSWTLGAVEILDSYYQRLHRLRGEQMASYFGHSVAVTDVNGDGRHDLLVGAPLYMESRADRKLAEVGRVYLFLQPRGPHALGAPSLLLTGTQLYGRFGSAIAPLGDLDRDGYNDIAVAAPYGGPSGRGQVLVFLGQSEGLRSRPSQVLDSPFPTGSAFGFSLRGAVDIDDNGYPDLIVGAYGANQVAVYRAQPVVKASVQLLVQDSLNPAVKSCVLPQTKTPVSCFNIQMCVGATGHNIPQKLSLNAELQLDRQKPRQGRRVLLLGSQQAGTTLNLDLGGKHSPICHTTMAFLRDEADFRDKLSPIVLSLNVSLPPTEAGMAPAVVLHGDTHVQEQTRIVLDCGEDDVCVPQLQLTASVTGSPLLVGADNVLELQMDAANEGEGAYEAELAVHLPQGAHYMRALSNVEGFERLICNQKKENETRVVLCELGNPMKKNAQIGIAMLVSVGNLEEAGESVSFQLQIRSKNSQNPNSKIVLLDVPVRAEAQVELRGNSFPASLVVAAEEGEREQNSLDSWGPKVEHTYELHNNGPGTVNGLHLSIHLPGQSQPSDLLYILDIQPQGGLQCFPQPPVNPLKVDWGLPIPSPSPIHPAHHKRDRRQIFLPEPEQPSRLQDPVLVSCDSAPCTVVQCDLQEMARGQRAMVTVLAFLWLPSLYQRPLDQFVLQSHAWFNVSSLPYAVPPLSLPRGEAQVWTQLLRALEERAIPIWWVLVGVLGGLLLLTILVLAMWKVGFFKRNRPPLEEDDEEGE
T4 sequence (P05106 27-788 limits assumed, chain 2 of 2): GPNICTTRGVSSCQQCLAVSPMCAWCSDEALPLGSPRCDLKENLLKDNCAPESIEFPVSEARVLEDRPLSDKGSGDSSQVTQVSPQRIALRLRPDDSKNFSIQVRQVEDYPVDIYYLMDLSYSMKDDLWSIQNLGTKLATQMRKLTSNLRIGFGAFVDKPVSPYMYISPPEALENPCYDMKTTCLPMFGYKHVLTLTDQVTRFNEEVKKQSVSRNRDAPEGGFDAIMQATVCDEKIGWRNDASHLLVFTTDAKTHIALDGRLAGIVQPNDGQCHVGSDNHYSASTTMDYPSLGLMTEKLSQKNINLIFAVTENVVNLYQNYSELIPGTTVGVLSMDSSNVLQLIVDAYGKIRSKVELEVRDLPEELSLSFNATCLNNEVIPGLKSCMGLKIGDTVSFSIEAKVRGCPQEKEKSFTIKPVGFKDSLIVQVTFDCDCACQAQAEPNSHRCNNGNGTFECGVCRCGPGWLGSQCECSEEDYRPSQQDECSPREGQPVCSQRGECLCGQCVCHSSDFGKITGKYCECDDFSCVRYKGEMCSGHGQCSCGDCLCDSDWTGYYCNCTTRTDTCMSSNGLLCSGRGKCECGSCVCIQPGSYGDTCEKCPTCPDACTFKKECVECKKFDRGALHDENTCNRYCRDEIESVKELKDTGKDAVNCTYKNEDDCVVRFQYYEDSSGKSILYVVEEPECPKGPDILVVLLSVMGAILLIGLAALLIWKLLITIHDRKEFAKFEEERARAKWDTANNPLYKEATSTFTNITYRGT

[6] = biological target: T5, porcine αvβ3 integrin on PAE cells (porcine, UniProt A0A5K1V6L8 31-1052; A0A8D0RDV2 33-793); experiment: flow cytometry titration on PAE cells, anti-FLAG detection
T5 construct: whole, on cells

[7] = biological target: T1, human αvβ3 integrin on cells; experiment: flow cytometry titration on K562-αvβ3 cells, anti-His detection
[8] = biological target: VEGFR2 and αvβ3 integrin, both expressed on human umbilical vein endothelial cells (HUVEC) (human) (UniProt P35968); experiment: flow cytometry titration on HUVEC (VEGFR2 and αvβ3 both present), anti-FLAG detection
[9] = biological target: VEGFR2 and αvβ3 integrin, both expressed on SVR angiosarcoma cells (murine cell line) (murine) (UniProt P35918); experiment: flow cytometry titration on SVR cells (VEGFR2 and αvβ3 both present), anti-FLAG detection
[10] = biological target: T1, human αvβ3 integrin on cells; experiment: flow cytometry titration on U87MG cells (no VEGFR2; receptor not named by the filing), anti-FLAG detection
[11] = biological target: T6, human VEGFR2 on cells (PAE/KDR cells, HUVEC) (human, UniProt P35968 20-1356); experiment: flow cytometry titration on PAE/KDR cells (also carry porcine αvβ3; filing ascribes binding to VEGFR2), anti-FLAG detection
T6 construct: whole, on cells

[12] = biological target: T5, porcine αvβ3 integrin on PAE cells; experiment: flow cytometry on PAE cells
[13] = biological target: T6, human VEGFR2 on cells (PAE/KDR cells, …); experiment: flow cytometry titration on HUVEC, anti-FLAG detection
[14] = biological target: T7, VEGFR2 on SVR angiosarcoma cells (murine cell line) (murine, UniProt P35918 20-1345); experiment: flow cytometry titration on SVR cells, anti-FLAG detection
T7 construct: whole, on cells
T7 sequence (P35918 20-1345): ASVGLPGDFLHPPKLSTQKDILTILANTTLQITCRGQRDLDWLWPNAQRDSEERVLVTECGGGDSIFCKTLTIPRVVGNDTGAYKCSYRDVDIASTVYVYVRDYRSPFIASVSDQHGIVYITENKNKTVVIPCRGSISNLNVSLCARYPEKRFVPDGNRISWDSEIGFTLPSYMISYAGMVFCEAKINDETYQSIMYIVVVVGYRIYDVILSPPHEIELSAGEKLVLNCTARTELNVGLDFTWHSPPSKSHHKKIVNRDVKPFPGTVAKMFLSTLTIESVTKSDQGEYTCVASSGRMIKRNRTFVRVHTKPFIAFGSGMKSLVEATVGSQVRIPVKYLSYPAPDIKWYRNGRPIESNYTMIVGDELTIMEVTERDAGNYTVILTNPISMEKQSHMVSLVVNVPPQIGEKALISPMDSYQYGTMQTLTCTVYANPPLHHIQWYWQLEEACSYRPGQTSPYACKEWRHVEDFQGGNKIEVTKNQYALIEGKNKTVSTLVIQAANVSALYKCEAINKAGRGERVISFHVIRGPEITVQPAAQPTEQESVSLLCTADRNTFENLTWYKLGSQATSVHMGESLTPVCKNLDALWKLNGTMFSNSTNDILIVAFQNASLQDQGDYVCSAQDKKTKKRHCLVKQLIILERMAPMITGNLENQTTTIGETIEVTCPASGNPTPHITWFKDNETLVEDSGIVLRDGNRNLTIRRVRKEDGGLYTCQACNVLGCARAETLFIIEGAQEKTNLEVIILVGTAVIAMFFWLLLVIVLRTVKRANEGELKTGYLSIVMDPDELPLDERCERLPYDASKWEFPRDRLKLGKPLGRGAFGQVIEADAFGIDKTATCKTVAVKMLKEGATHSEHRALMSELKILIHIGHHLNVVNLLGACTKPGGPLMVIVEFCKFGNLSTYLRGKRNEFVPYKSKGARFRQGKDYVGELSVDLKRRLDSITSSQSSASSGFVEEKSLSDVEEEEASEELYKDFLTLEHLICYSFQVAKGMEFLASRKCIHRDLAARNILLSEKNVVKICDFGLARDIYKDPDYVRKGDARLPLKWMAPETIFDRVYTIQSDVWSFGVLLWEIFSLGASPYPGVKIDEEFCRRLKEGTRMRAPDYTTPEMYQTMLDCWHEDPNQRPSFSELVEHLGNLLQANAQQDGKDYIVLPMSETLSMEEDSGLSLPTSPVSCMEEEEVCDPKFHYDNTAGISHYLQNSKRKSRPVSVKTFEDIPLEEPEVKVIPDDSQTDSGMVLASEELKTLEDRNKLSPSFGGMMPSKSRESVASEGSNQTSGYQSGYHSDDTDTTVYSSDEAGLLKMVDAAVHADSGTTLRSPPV

[15] = biological target: T6, human VEGFR2 on cells (PAE/KDR cells, …); experiment: flow cytometry titration on PAE/KDR cells, anti-FLAG detection
[16] = biological target: T1, human αvβ3 integrin on cells; experiment: flow cytometry on U87MG cells (no VEGFR2; receptor not named by the filing)
[17] = biological target: T8, recombinant human VEGFR2 extracellular domain (human, UniProt P35968 20-764); experiment: SPR (BIAcore 3000), VEGFR2 amine-coupled to CM5 chip, scVEGF as analyte, 1:1 model
T8 construct: extracellular domain; also called KDR; Flk-1
T8 sequence (P35968 20-764): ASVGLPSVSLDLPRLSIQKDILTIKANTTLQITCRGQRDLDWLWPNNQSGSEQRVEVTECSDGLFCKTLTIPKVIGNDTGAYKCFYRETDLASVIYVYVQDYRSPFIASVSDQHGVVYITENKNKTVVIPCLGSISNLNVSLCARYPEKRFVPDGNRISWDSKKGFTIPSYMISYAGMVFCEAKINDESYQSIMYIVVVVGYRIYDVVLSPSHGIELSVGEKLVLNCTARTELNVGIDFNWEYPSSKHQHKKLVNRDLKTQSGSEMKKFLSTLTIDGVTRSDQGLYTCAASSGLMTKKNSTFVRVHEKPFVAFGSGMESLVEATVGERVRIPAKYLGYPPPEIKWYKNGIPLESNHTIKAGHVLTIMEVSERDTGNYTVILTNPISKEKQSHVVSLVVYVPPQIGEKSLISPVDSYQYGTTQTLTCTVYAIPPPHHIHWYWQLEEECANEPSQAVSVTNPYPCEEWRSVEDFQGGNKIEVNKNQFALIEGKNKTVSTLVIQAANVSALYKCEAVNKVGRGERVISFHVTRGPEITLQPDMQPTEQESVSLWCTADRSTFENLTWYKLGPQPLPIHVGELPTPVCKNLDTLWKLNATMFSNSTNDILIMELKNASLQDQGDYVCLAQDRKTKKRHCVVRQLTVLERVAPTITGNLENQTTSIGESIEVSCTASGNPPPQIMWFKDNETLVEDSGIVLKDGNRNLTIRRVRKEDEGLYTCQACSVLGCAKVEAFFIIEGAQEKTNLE

[18] = biological target: T6, human VEGFR2 on cells (PAE/KDR cells, …); experiment: flow cytometry titration on PAE/KDR cells, optimized conditions of Example 3, anti-FLAG detection
[19] = biological target: T6, human VEGFR2 on cells (PAE/KDR cells, …); experiment: flow cytometry titration on HUVEC, optimized conditions of Example 3, anti-FLAG detection
[20] = biological target: T7, VEGFR2 on SVR angiosarcoma cells …; experiment: flow cytometry titration on SVR cells, optimized conditions of Example 3, anti-FLAG detection
[21] = biological target: T1, human αvβ3 integrin on cells; experiment: flow cytometry titration on K562-αvβ3 cells
[22] = biological target: T1, human αvβ3 integrin on cells; experiment: flow cytometry on K562-αvβ3 cells

T1 sequence (P06756 31-1048, chain 1 of 2): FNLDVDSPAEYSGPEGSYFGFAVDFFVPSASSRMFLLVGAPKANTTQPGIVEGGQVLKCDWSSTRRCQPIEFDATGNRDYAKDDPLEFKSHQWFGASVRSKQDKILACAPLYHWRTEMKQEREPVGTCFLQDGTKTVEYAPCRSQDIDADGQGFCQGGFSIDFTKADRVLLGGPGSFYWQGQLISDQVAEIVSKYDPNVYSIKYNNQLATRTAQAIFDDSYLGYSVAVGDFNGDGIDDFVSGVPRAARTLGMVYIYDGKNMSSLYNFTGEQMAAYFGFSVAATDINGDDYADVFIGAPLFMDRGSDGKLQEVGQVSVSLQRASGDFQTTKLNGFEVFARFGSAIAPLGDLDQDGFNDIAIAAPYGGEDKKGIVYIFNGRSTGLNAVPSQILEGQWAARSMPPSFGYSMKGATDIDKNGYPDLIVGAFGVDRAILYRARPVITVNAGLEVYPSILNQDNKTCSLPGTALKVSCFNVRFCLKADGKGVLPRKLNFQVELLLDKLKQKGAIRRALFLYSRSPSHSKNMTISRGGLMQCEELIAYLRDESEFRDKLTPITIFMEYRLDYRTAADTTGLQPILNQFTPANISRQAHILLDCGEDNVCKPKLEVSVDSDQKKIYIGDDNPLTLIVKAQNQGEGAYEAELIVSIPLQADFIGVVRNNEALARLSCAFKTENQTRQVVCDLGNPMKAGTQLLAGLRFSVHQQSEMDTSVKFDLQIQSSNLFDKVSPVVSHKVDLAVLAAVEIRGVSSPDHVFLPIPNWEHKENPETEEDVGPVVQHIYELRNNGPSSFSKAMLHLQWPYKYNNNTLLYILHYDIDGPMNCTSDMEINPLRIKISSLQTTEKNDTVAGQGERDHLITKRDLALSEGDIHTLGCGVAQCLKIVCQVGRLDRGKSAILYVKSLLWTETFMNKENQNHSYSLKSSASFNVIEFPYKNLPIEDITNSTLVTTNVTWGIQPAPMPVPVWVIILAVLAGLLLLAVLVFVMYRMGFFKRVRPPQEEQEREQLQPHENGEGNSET
T1 sequence (P05106 27-788, chain 2 of 2): as the sequence (P05106 27-788 limits assumed, chain 2 of 2) above

Row | Binder | IC50 of inhibition of vitronectin-mediated adhesion of HUVEC cells [2] [nM] | binding result [3] | binding result [4] | binding result [5] | Kd [6] [nM] | Kd [7] [nM] | Kd [8] [nM] | Kd [9] [nM] | Kd [10] [nM] | Kd [11] [nM] | binding result [12] | Kd [13] [nM] | Kd [14] [nM] | Kd [15] [nM] | binding result [16] | Kd [17] [nM] | koff [17] [s⁻¹] | kon [17] [M⁻¹ s⁻¹] | Kd [18] [nM] | other results
1 | scVEGFrgd-7I (designed binder, Soluble protein from P. pastoris with C-terminal hexahistidine tag, with or without N-terminal FLAG tag; also called scVEGF-7I) EVVKAMDVYQRSYCHPIETLVDIFQEYPDEIEYIFKPSCVPLMRCGGCCNDAGLECVPTEESNITMQIMRIKPHQGQHIGEMSFLQHNKCECRPKKDGSTSGSGKSSEGKGEVVKFMDVYQRSYCHPIETLVDIFQEYPDEIEYAFKPSCVPLMRCGGCCNDEGLECVPTEESNITMQIMRPSVRRGDSPASHIGEMSFLQHNKCECRPKKDTR | < 10 | no binding | no binding | no binding | 18.6 | 34 | 6 | 37 | 13.9 | 20 |  |  |  |  |  |  |  |  |  | inhibition of VEGF-induced autophosphorylation of VEGFR-2 in HUVEC in the presence of vitronectin [1]: 80%
2 | scVEGF-mA (designed binder, Soluble protein from P. pastoris with C-terminal hexahistidine tag, with or without N-terminal FLAG tag (tags not included in the parts); also called scVEGFmut-A) EVAKAMDVYQKSYCHPIETLVDILQEYPDEIGYIFKPSCVPLMRCGGCCNDAGLECVPTEESNITMQIMRIKPYQGQHIGEMSFLQHNKCECRPKKDGSTSGSGKSSEGKGEVVKFMDVYQRSYCHPIETLVDIFQEYPDKIEYAFKPSCVPLMRCGGCCNNEGLECVPTEESNITMQITRAKPHQGQHIGEMSFLQHNKCECRPKKD |  | no binding | no binding | no binding |  |  |  |  |  |  | no binding (tested: 1 µM) | 36 | 13 | 5.7 | no binding (tested: 1 µM) | 2.1 | 0.00049 | 240000 | 0.5 | 
3 | scVEGF-mE (designed binder, Soluble protein with C-terminal hexahistidine tag, with or without N-terminal FLAG tag (tags not included in the parts); also called scVEGFmut-E) EVVKAMDVYQRSYCHPIETLVDILQEYPDEIGYIFKPSCVPLMRCGGCCNGAGLECVPTEESNITMQIMRIKPHRGQHIGEMSFLQHNKCECRPKKDGSTSGSGKSSEGKGEVVRFMDVYQRSYCHPIETLVDIFQEYPNEIEYAFKPSCVPLMRCGGCCNNEGLECVPTEESNITMQIMRAKPHQGQHIGEMSFLQHNKCECRPKKD |  | no binding | no binding | no binding |  |  |  |  |  |  | no binding (tested: 1 µM) | 53 | 8 | 6.6 | no binding (tested: 1 µM) | 2.8 | 0.00061 | 220000 | 0.9 | Kd [19]: 0.4 nM; Kd [20]: 0.7 nM
4 | scVEGF-mJ (designed binder, Soluble protein with C-terminal hexahistidine tag, with or without N-terminal FLAG tag (tags not included in the parts); also called scVEGFmut-J) EIVKARDVYQRSYCHPIETLVDILQEYPDEIEYIFKPSCVPLMRCGGCCNDAGLECVPTEESNITMQIMRIKPYQGHHIGEMSFLQHNKCECRPKKDGSTSGSGKSSEGKGEVVKFMDVYQRSYCHPIETLVDIFQEYPDEIEYAFKPSCVPLMRCGGCCNNEGLECVPTEESNITMQIMRAKPHQGQHTGEMSFLQHNKCECRPKKD |  | no binding | no binding | no binding |  |  |  |  |  |  | no binding (tested: 1 µM) | 39 | 3 | 6.9 | no binding (tested: 1 µM) | 1.6 | 0.0003 | 200000 | 0.5 | 
5 | scVEGFrgd-7H (designed binder, Soluble protein from P. pastoris with C-terminal hexahistidine tag, with or without N-terminal FLAG tag; also called scVEGF-7H) EVVKAMDVYQRSYCHPIETLVDIFQEYPDEIEYIFKPSCVPLMRCGGCCNDAGLECVPTEESNITMQIMRIKPHQGQHIGEMSFLQHNKCECRPKKDGSTSGSGKSSEGKGEVVKFMDVYQRSYCHPIETLVDIFQEYPDEIEYAFKPSCVPLMRCGGCCNDEGLECVPTEESNITMQIMRPGGRGDSAYHIGEMSFLQHNKCECRPKKDTR | < 10 | no binding | no binding | no binding | 26.5 | 36 | 12 | 18 | 15.6 | 16 |  |  |  |  |  |  |  |  |  | 
6 | scVEGFrgd-7B (designed binder, Soluble protein from P. pastoris with C-terminal hexahistidine tag, with or without N-terminal FLAG tag) EVVKAMDVYQRSYCHPIETLVDIFQEYPDEIEYIFKPSCVPLMRCGGCCNDAGLECVPTEESNITMQIMRIKPHQGQHIGEMSFLQHNKCECRPKKDGSTSGSGKSSEGKGEVVKFMDVYQRSYCHPIETLVDIFQEYPDEIEYAFKPSCVPLMRCGGCCNDEGLECVPTEESNITMQIMRPHDRGDAGVHIGEMSFLQHNKCECRPKKDTR |  |  |  |  |  | 140 |  |  |  |  |  |  |  |  |  |  |  |  |  | Kd [21]: 143 nM
7 | scVEGFrgd-7P (designed binder, Soluble protein from P. pastoris with C-terminal hexahistidine tag, with or without N-terminal FLAG tag; also called scVEGF-7P) EVVKAMDVYQRSYCHPIETLVDIFQEYPDEIEYIFKPSCVPLMRCGGCCNDAGLECVPTEESNITMQIMRIKPHQGQHIGEMSFLQHNKCECRPKKDGSTSGSGKSSEGKGEVVKFMDVYQRSYCHPIETLVDIFQEYPDEIEYAFKPSCVPLMRCGGCCNDEGLECVPTEESNITMQIMRPASRGDSPPHIGEMSFLQHNKCECRPKKDTR | < 10 | no binding | no binding | no binding | 26.9 | 37 | 45 | 31 | 29 | 21 |  |  |  |  |  |  |  |  |  | 
8 | scVEGFwt (ligand, also called wild-type scVEGF; single-chain VEGF) YVEVVKFMDVYQRSYCHPIETLVDIFQEYPDEIEYIFKPSCVPLMRCGGCCNDEGLECVPTEESNITMQIMRIKPHQGQHIGEMSFLQHNKCECRPKKDGSTSGSGKSSEGKGEVVKFMDVYQRSYCHPIETLVDIFQEYPDEIEYIFKPSCVPLMRCGGCCNDEGLECVPTEESNITMQIMRIKPHQGQHIGEMSFLQHNKCECRPKKDTR |  |  |  |  |  |  |  |  |  |  | no binding (tested: 1 µM) | 28 | 32 | 9.8 |  | 4 | 0.0007 | 200000 |  | binding result [22]: no binding (tested: 1 µM)
9 | scVEGFmut (designed binder, scVEGF with chain 1 F17A, E64A and chain 2 I46A, I83A (VEGF121 numbering); Soluble protein from P. pastoris with C-terminal hexahistidine tag, with or without N-terminal FLAG tag) YVEVVKAMDVYQRSYCHPIETLVDIFQEYPDEIEYIFKPSCVPLMRCGGCCNDAGLECVPTEESNITMQIMRIKPHQGQHIGEMSFLQHNKCECRPKKDGSTSGSGKSSEGKGEVVKFMDVYQRSYCHPIETLVDIFQEYPDEIEYAFKPSCVPLMRCGGCCNDEGLECVPTEESNITMQIMRAKPHQGQHIGEMSFLQHNKCECRPKKDTR |  |  |  |  |  |  |  |  |  |  | no binding (tested: 1 µM) | 101 |  | 17 | no binding (tested: 1 µM) | 18 | 0.00146 | 83000 | 55 | Kd [19]: 44 nM; Kd [20]: > 40 nM
